Reference: article PMC8752090

Target: adaptor protein complex 2 (AP-2), P17426;Q9DBG3;P84091;P62743
Assay: GST pull-down from brain lysate, immunoblot band quantification
Settings: chain shown with the change; n = 3 independent experiments; parent: est. 1.0; read off a plot

B1: GST-VGLUT1 C-terminus-WT (cytoplasmic C-terminal region of VGLUT1, a.a. 496-560), Q3TXX4 F510A; V511A (protein)
chain: PWAEPEEMSEEKCGAAGHDQLAGSDESEMEDEAEPPGAPPAPPPSYGATHSTVQPPRPPPPVRDY
ratio to parent: 0.19
